{
  "source": "paper PMC3865534",
  "about": "(Leukemia, 2013)",
  "key": {"[1]": {"test_system": "macrophages and osteoblasts in BM and endosteum", "details": "previously confirmed; cited from earlier work", "from_the_text": "Using a similar immunohistochemistry approach, we examined whether the distribution of mature osteoblasts and macrophages within the BM and endosteal environment was disturbed by treatment with POL5551. […] In contrast to G-CSF (Figures 6c and d), treatmen ..."}, "human CXCR4": {"test_system": "human CXCR4", "experiment": "Receptor binding: competition with CXCR4 antibody clones 12G5/1D9 on Ao.o1_hCXCR4 cells", "details": "1 μM, concurrent incubation with antibody, 4 °C, 30 min, PBS/BSA 0.5%, flow cytometry, n=3", "from_the_text": "(§1) (a, b) Analysis of the binding properties of POL5551 to CXCR4. […] CXCR4 Ab without agonist/antagonists (untreated) or isotypic control Ab (isotype) were used as positive and negative controls.\nCXCR4 Ab without agonist/antagonists (untreated) or isotypic control Ab (isotype) were used as positive and negative controls."}, "[2]": {"test_system": "BM cells (CFU-C) migrating towards CXCL12", "experiment": "Transwell migration of BM CFU-C towards CXCL12", "type": "cell-based, mouse", "details": "CXCL12 100 ng/ml, 4 h", "method": "(§2) Input cells and cells from the lower chamber were plated into a colony assay; colony-forming unit culture (CFU-C) migration is expressed as the percent of migrated CFU-C of total CFU-C contained in the inoculum (input).\nas §1"}, "[3]": {"test_system": "BM cells stimulated with CXCL12", "experiment": "F-actin polymerization assay after CXCL12 stimulation", "type": "cell-based, mouse", "details": "pretreatment with 1 μM; CXCL12 100 ng/ml, 37 °C, n=3", "from_the_text": "F-actin was then stained with AlexaFluor568-conjugated phalloidin (Molecular Probes, Eugene, OR, USA) followed by flow cytometric analysis of the relative staining intensity.\nas §1"}, "[4]": {"test_system": "hematopoietic progenitor cells (CFU-C) in C57BL/6 mice", "experiment": "CFU-C mobilization in C57BL/6 mice", "type": "in vivo", "method": "(§3) POL5551 (Polyphor Ltd, Allschwil, Switzerland) was suspended in saline and either injected as bolus intraperitoneally (i.p.) or intravenously (i.v.) (0.5–100 μg/g body weight) or filled into continuous-release osmotic minipumps (model 2001, Alzet, Palo Alto, CA, USA), which were implanted under general anesthesia into a dorsal subcutaneous pouch. Mono-biotinylated POL5551 (Polyphor Ltd) was suspended in PBS (Life Technologies GmbH, Darmstadt, Germany) and injected i.p. rhG-CSF (Granocyte, Chugai, Frankfurt, Germany) was suspended in dH20 and diluted in saline to a final concentration of 0.5 μg/μl for i.p. injection. Mice received G-CSF injections every 12 h at a dose of 100 μg/kg for a total of nine doses i.p., referred to as ‘standard regimen' throughout the manuscript. Subsequent blood withdrawal and/or administration of POL5551 were performed directly after the last G-CSF injection on day 5.\n(§4) For enumeration of CFU-C, aliquots of cells were incubated in duplicate in commercially available growth-factor-supplemented methyl cellulose medium for mouse CFU-C (Stem Cell Technologies, Vancouver, BC, USA or Cell Systems) as described.[23], [32] CFU-C (BFU-E, CFU-GM and CFU-GEMM) were enumerated after 6–8 days."}, "[5]": {"test_system": "hematopoietic progenitor cells (CFU-C) in diabetic C57BL/6 mice", "experiment": "CFU-C mobilization in Streptozotocin-induced diabetic mice", "type": "in vivo", "method": "as §3, §4"}, "[6]": {"test_system": "hematopoietic progenitor cells (CFU-C)", "experiment": "Co-mobilization with G-CSF", "type": "in vivo, mouse", "details": "Plerixafor 5 or 10 mg/kg i.p. at end of standard regimen of G-CSF, n=6–8", "method": "as §3, §4\n(§5) Circulating CFU-Cs were enumerated at the indicated time points (mean±s.e.m., n=6–8 mice). […]"}, "[7]": {"test_system": "hematopoietic progenitor cells (CFU-C)", "experiment": "Co-mobilization with Cyclophosphamide (CY)", "type": "in vivo, mouse", "details": "5 mg/kg i.p. on day 8 after CY 200 mg/kg i.p.", "method": "as §3, §4, §5"}, "[8]": {"details": "mouse, in vivo"}, "[9]": {"test_system": "hematopoietic progenitor cells (CFU-C) in C57BL/6 mice", "details": "Plerixafor in mice; cited from earlier work", "method": "In this study, in vitro and in vivo properties of the novel CXCR4 antagonist POL5551 as a mobilizing agent were evaluated."}, "[10]": {"test_system": "hematopoietic progenitor cells (CFU-C) in DBA/2 mice", "experiment": "CFU-C mobilization, DBA/2 relative to C57BL/6 mice", "type": "in vivo", "details": "G-CSF standard regimen", "method": "as §3, §4"}, "white blood cells": {"test_system": "white blood cells", "experiment": "Mobilization of mature leukocyte subsets", "type": "in vivo, C57BL/6 mice", "details": "POL5551 4 h i.p., G-CSF standard regimen, Plerixafor 5 mg/kg i.p. 1 h", "method": "(§6) Cell labeling was performed according to standard protocols using established marker panels for identification of different subsets in mouse hematopoietic tissues. Antibodies used in this study are detailed in Supplementary Methods. Subsequent acquisition and analysis were performed on a BD FACSCanto II cytometer with the FACSDiva software (BD Biosciences). Some data were further analyzed using the FlowJo software (Tree Star, Inc., Ashland, OR, USA). Cell isolation by flow sorting was performed on a BD FACS Aria II (BD Biosciences).\nFigure S3: Mobilization of mature cell subsets by POL5551. A: Time-response of POL5551 mediated mobilization of WBCs. C57BL/6 mice received POL5551 (5 mg/kg) i.p. and blood was drawn at the indicated time points for blood count analysis (mean±SEM from 5 mice). B: Relative distribution of leukocytes in mobilized blood specimen. Blood was drawn before (baseline) and 4 hours after POL5551 injection i.p. (mean±SEM, n=5). […] C: Mobilization of T-, B-cells, monocytes and granulocytes. Blood composition was analyzed 4 hours after POL5551 injection (30 mg/kg, i.p. mean±SEM, n=6). […] D: Assessment of mobilized T-cell subsets."}, "[11]": {"test_system": "PB-mobilized CFU-C migrating towards CXCL12", "experiment": "Ex vivo migration of mobilized CFU-C towards CXCL12", "type": "cell-based, mouse", "details": "G-CSF standard regimen; n=5–8", "method": "as §2"}, "c-kit+ cells": {"test_system": "c-kit+ cells", "experiment": "Immunophenotype of c-kit+ cells", "type": "in vivo, C57BL/6 mice", "details": "G-CSF standard regimen, after 9th dose, mean +/- SEM, n=5", "method": "as §6\nC57BL/6 mice were mobilized with a bolus injection of POL5551 (5 or 30 mg/kg, i.p., n=5) or standard regimen of G-CSF (n=5). Saline treated animals (n=5) served as steady-state BM and PB donors. […] Percentage of positive cells was evaluated in comparison to isotype control. Mean fluorescence intensity was analyzed among c-kit+ cells."}, "[12]": {"test_system": "long-term repopulating HSCs", "experiment": "Limiting dilution competitive repopulating unit (CRU) assay", "type": "in vivo, mouse", "details": "POL5551 30 mg/kg i.p.; G-CSF standard regimen; 16 weeks, n=5–10", "method": "To determine the frequency of long-term repopulating HSCs in POL5551 versus G-CSF-mobilized blood, a limiting dilution CRU assay was performed.[34] Lethally irradiated CD45.2 hosts, 5–10 per group, received i.v. grafts consisting of limiting volumes (2.5, 5.0 and 10 μl) of CD45.1 POL5551 or G-CSF-mobilized blood cells together with 2.5 × 10^5 CD45.2 BM competitor cells. After 16 weeks, multilineage contribution of the CD45.1 graft-derived leukocytes was measured using flow cytometry. Animals with evidence of mobilized blood-derived (that is, CD45.1+) Gr1+, CD11b+, B220+ and CD3+ cells (⩾0.5% for each lineage) were considered positive for donor cell engraftment. CRU (LTRC) frequency was calculated using the LCALC software (Stem Cell Technologies).\nFigure 5 Mobilization of CRU by POL5551. CRU frequency in POL5551 (30 mg/kg)-mobilized blood was determined using a CRU assay and compared with the CRU frequency in G-CSF (standard regimen)-mobilized blood. […] CRU engraftment, defined as multilineage engraftment of ⩾0.5% per lineage was quantified 16 weeks after transplantation. […] The mean CRU (LTRC) frequency (b) was calculated using Poisson's statistic (LCALC software, Stem Cell Technologies) (mean±upper/lower frequency)."}},
  "data": [
    {"molecule": "O=P1(N(CCCl)CCCl)NCCCO1", "note": "(stereo not drawn) [CY, Cyclophosphamide]", "values": [
      {"measurement": "Mobilization through collapse of HSC niche cellular components", "setting": "[1]", "value": "initiates collapse of HSC niche cellular components"}
    ]},
    {"molecule": "c1cc(CN2CCCNCCNCCCNCC2)ccc1CN1CCCNCCNCCCNCC1", "note": "[Plerixafor]", "values": [
      {"measurement": "Binding to N-terminus / interference with 1D9 binding", "setting": "human CXCR4", "value": "without affecting the binding of 1D9"},
      {"measurement": "Binding to extracellular loops / interference with 12G5 binding", "setting": "human CXCR4", "value": "interfered with 12G5 binding"},
      {"measurement": "Inhibition of CXCL12-induced transwell migration of ssBM CFU-C", "setting": "[2]; pre-incubation with 1 μM, n=3", "value": "completely blocked"},
      {"measurement": "Inhibition of CXCL12-induced F-actin polymerization", "setting": "[3]", "value": "did not show an inhibitory effect"},
      {"measurement": "Circulating CFU-C", "setting": "[4]; Plerixafor 5 mg/kg i.p., n=4", "value": 1300, "unit": "CFU-C/ml"},
      {"measurement": "Rescue of diabetes-induced hyporesponsiveness to G-CSF", "setting": "[5]; Plerixafor 10 mg/kg i.p. after the ninth G-CSF dose, 1 h, n=3", "value": "could rescue diabetes-induced hyporesponsiveness to G-CSF"},
      {"measurement": "CFU-C mobilization in diabetic vs healthy mice", "setting": "[5]; Plerixafor 10 mg/kg i.p., 1 h, n=3", "value": "markedly decreased (to approximately one-fourth)"},
      {"measurement": "Mobilization in combination with G-CSF", "setting": "[6]", "value": "noticeably enhanced"},
      {"measurement": "CFU-C mobilized in combination with CY", "setting": "[7]", "value": "> 40 000 CFU-C per ml PB"},
      {"measurement": "Synergism with CY compared with CY plus G-CSF", "setting": "[7]", "value": "more pronounced than the combination of CY plus G-CSF"},
      {"measurement": "Toxicity limiting dose", "setting": "[8]", "value": "could not be tested at doses >10 mg/kg because of its toxicity"},
      {"measurement": "Dose at which mobilization peaks", "setting": "[9]", "value": 5, "unit": "mg/kg"}
    ]},
    {"molecule": "CXCL12: the natural ligand, the chemokine CXCL12", "values": [
      {"measurement": "CXCL12-induced transwell migration of ssBM CFU-C", "setting": "[2]; percent of input CFU-C, no inhibitor, n=13", "value": "~6", "unit": "%"}
    ]},
    {"molecule": "G-CSF: rhG-CSF (Granocyte, Chugai, Frankfurt, Germany) (protein, UniProt P09919 31-207, looked up) Granulocyte …: TPLGPASSLPQSFLLKCLEQVRKIQGDGAALQEKLVSECATYKLCHPEELVLLGHSLGIPWAPLSSCPSQALQLAGCLSQLHSGLFLYQGLLQALEGISPELGPTLDTLQLDVADFATTIWQQMEELGMAPALQPTQGAMPAFASAFQRRAGGVLVASHLQSFLEVSYRVLRHLAQP", "values": [
      {"measurement": "Circulating CFU-C", "setting": "[4]; G-CSF standard regimen (100 μg/kg every 12 h, nine doses i.p.), n=58", "value": 3800, "unit": "CFU-C/ml"},
      {"measurement": "Mobilization in DBA/2 relative to C57BL/6 mice", "setting": "[10]", "value": "at least six times more CFU-C in DBA/2 than in C57BL/6 mice"},
      {"measurement": "CFU-C mobilization in diabetic vs healthy mice", "setting": "[5]; G-CSF standard regimen, n=6", "value": "markedly decreased (to approximately one-fourth)"},
      {"measurement": "Frequency of neutrophils in mobilized vs non mobilized blood", "setting": "white blood cells", "value": "most prominently in G-CSF-mobilized"},
      {"measurement": "Responsiveness of mobilized CFU-C to CXCL12", "setting": "[11]", "value": "to a similar degree as was also observed for G-CSF-mobilized blood"},
      {"measurement": "CD26, RMFI of c-kit+ cells", "setting": "c-kit+ cells", "value": "291 +/- 56"},
      {"measurement": "CD26, positive c-kit+ cells", "setting": "c-kit+ cells", "value": "1,6 +/- 0,3%"},
      {"measurement": "CD29, RMFI of c-kit+ cells", "setting": "c-kit+ cells", "value": "1587 +/- 267"},
      {"measurement": "CD29, positive c-kit+ cells", "setting": "c-kit+ cells", "value": "38,0 +/- 6,2%"},
      {"measurement": "CD49e, RMFI of c-kit+ cells", "setting": "c-kit+ cells", "value": "772 +/- 39"},
      {"measurement": "CD49e, positive c-kit+ cells", "setting": "c-kit+ cells", "value": "55,2 +/- 3,5%"},
      {"measurement": "CD49f, RMFI of c-kit+ cells", "setting": "c-kit+ cells", "value": "642 +/- 104"},
      {"measurement": "CD49f, positive c-kit+ cells", "setting": "c-kit+ cells", "value": "24,2 +/- 4,7%"},
      {"measurement": "CD49d, RMFI of c-kit+ cells", "setting": "c-kit+ cells", "value": "1179 +/- 58"},
      {"measurement": "CD49d, positive c-kit+ cells", "setting": "c-kit+ cells", "value": "72,6 +/- 3,6%"},
      {"measurement": "VCAM1, RMFI of c-kit+ cells", "setting": "c-kit+ cells", "value": "384 +/- 73"},
      {"measurement": "VCAM1, positive c-kit+ cells", "setting": "c-kit+ cells", "value": "0,7 +/- 0,1%"},
      {"measurement": "CRU frequency in mobilized blood", "setting": "[12]", "value": 34, "unit": "CRU/ml"},
      {"measurement": "Mobilization through collapse of HSC niche cellular components", "setting": "[1]", "value": "initiates collapse of HSC niche cellular components"}
    ]}
  ]
}
